Substitutions are numbered along the chain they refer to.
B1: recombinant bGCAP2, mock-treated (unphosphorylated) (natural protein, bovine, UniProt P51177 1-204, looked up)
chain: MGQQFSWEEAEENGAVGAADAAQLQEWYKKFLEECPSGTLFMHEFKRFFKVPDNEEATQYVEAMFRAFDTNGDNTIDFLEYVAALNLVLRGTLEHKLKWTFKIYDKDRNGCIDRQELLDIVESIYKLKKACSVEVEAEQQGKLLTPEEVVDRIFLLVDENGDGQLSLNEFVEGARRDKWVMKMLQMDLNPSSWISQQRRKSAMF
notes: Cross-linked to magnetic beads for the pull-down; also called mock bGCAP2; recombinant wildtype bGCAP2
B2: recombinant phosphorylated bGCAP2 (natural protein, bovine, UniProt P51177 1-204, looked up)
chain: B1 chain
modifications: phosphorylated in vitro by PKG; Ser201 named as the site
notes: Cross-linked to magnetic beads for the pull-down; also called P-GCAP2
B3: recombinant bEF^−GCAP2, mock-treated (unphosphorylated) (natural protein, bovine, UniProt P51177 1-204, looked up)
chain: B1 chain with E80Q, E116Q, D158N
notes: Cross-linked to magnetic beads for the pull-down; also called mock bEF^−GCAP2; unphosphorylated bEF^−GCAP2
B4: recombinant phosphorylated bEF^−GCAP2 (natural protein, bovine, UniProt P51177 1-204, looked up)
chain: B1 chain with E80Q, E116Q, D158N
modifications: phosphorylated in vitro by PKG; Ser201 named as the site
notes: Cross-linked to magnetic beads for the pull-down

Molecular target: the molecule itself
Assay: SDS-PAGE and immunoblot; in vitro phosphorylation reactions (with or without cGMP, in EGTA) of purified recombinant GCAP2 resolved by 15% SDS-PAGE and immunostained for GCAP2; bands above the 25 kDa monomer

| Protein | binding result |
| --- | --- |
| B1 | binds |
| B2 | binds |
| B3 | binds |
| B4 | binds |

Source: publication PMC4109901, “Functional EF-Hands in Neuronal Calcium Sensor GCAP2 Determine Its Phosphorylation State and Subcellular Distribution In Vivo, and Are Essential for Photoreceptor Cell Integrity” (PLoS Genetics, 2014)
